From the nanobody polyreactivity screen of Harvey et al. (2022)

Test: yeast display, Sf9 membrane polyspecificity reagent, FACS + sequencing; frameworks hold sequencing errors
How it was run: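 Synthetic nanobody libraries on Saccharomyces cerevisiae BJ5465 were galactose-induced for 36–48 hours, stained 1 hour at 4 °C with 10% biotinylated, detergent-solubilized Sf9 membrane reagent and enriched on streptavidin microbeads. FACS then separated cells into low and high (top ~1%) gates by anti-HA (expression) and streptavidin (reagent binding) fluorescence. Genes were colony-PCR amplified, MiSeq 2 × 250 sequenced and CDR-length filtered. A clone's polyreactivity label is that of its gate of origin.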

| Sequence | polyreactivity (PSR sort gate) |
| --- | --- |
| QVQLVESGGGLVQAGGSLRLSCAASGFIFLAYTMGWYRQAPGKERELVAAISTSGGSTYYEDSVKGRFTISRDNAKNTVYLQMNSLKPEDTAVYYCAARYRWGRYDYWGQGTQVTVSS | high polyreactivity |
| QVQLVESGGGLVQAGGSLRLSCAASGFIFLDNAMGWNRQAPGKERELVDAISSTGSTYADSVKGRFTISRDNAKNTVYLQMNSLKPEDTAVYYCAADIEVSWDDDGYYPEYDYWGQGTQVTVSS | low polyreactivity |
| QVQLVESGGGLVQAGGSLRLSCAASGFIFLGNAMGWYRQAPGKERELVAAISSGGSTYADSVKGRFTISRDNAKNTVYLQMNSLKPEDTAVYYCAVDRAFRAQNYHEYDYWGQGTQVNVSS | low polyreactivity |
| QVQLVESGGGLVQAGGSLRLSCAASGFIFLGYAMGWYRPAPGKERELVATITWRGGSTYYADSVKGRFTISRDNAKNTVYLQMNSLKPEDTAVYYCAATRGWLHSFARDDHDYWGQGTQVTVSS | high polyreactivity |
| QVQLVESGGGLVQAGGSLRLSCAASGFIFLGYAMGWYRQAPGKEREFVAGITITGGSTYYADSVKGRFTISRDNAKNTVYLQMNSLKPEDTAVYYCNAESNLYRRRRNYWGQGTQVTVSS | low polyreactivity |
| QVQLVESGGGLVQAGGSLRLSCAASGFIFLLYDMGWYRQAPGKERELVAAITSDGTTNYADSVKGRFTISRDNAKNTVYLQMNSLKPEDTAVYYCAADGFTRWGRYDYWGQGTQVTVSS | high polyreactivity |
| QVQLVESGGGLVQAGGSLRLSCAASGFIFLPYAKGWYRQAPGKERELVAAITRGGRTYYADSVKGRFTISRDNAKNTVYLQMNSLKPEDTAVYYCAATTYLVWGYNYWGQGTQVTVSS | low polyreactivity |
| QVQLVESGGGLVQAGGSLRLSCAASGFIFLPYAMGWARQAPGKERELVAAITRGGRTYYADSVKGRFTISRDNAKNTVYLQMNSLKPEDTAVYYCAATTYLVWGYNYWGQGTQVTVSS | low polyreactivity |
| QVQLVESGGGLVQAGGSLRLSCAASGFIFLPYAMGWYRQAPGKERELVAAITRGGRTYYADSVKGRFTISRDNAKNTVYLKMNSLKPEDTAVYYCAATTYLVWGYNYWGQGTQVTVSS | low polyreactivity |
| QVQLVESGGGLVQAGGSLRLSCAASGFIFLSYGMGWYRPAPGKERELVASITSDGGSTYYADSVKGRFTISRDNAKNTVYLQMNSLKPEDTAVYYCAADSVSPWYYGWYYRYRGYGYWGQGTQVTVSS | low polyreactivity |
| QVQLVESGGGLVQAGGSLRLSCAASGFIFLVNAMGWYRRGPGTERELVAAISKSTGGTYYADSVKGRFTISRDNAKNTVYLQMNSLKPEDTAVYYCAADEVYPVQRDMDYWGQGTQVTVSS | low polyreactivity |
| QVQLVESGGGLVQAGGSLRLSCAASGFIFLVYAMGWYRQAPGKERELVAAISASGGRTYYADSVKGRFTISRDNAKNTVYLQMNSLKPEYTAVYYCARLLPTPGKPILDYWGQGTQVTVSS | low polyreactivity |
| QVQLVESGGGLVQAGGSLRLSCAASGFIFNAYAMGWYRQAPGKERELVAAVSWSGARTYYADSVKGRFTISRDNAKNTVYLQMNSLKPEDTAVYYCAAEYSGVHYQQAYDYSEGLDYWGQGTQVTVSS | low polyreactivity |
| QVQLVESGGGLVQAGGSLRLSCAASGFIFNFYAMGLYRQAPGKERELVAAISRSGGGTYYADSVKGRFTISRDNAKYTVYFQMNSLKPEDTAVYSCNVDKYRIVGFHSPYDYWGQGTQVTVSS | high polyreactivity |
| QVQLVESGGGLVQAGGSLRLSCAASGFIFNHYAMGWYRQAPGKEREFVAAISWSGTRTYYADSVKGRFTISRDNAKNTVYLQMNSLKPEDTSVYYCAADVWGPYDYWGQGTQLTVSS | low polyreactivity |
| QVQLVESGGGLVQAGGSLRLSCAASGFIFNKNAMGWYRQAPGKERELVAAITFGGGTTYYADSVKGRFTISRDNAKNTVYLQMNSLKPEDTAVYYCNAVYYWYKGDYWGQGTQVTVSS | high polyreactivity |
| QVQLVESGGGLVQAGGSLRLSCAASGFIFNRYAMGWYRQAPGKERELVAGITSSGGSTYYADSVKGRFTISRDNAKNTVYLQMNSLKPEDTAVYYCNADSWLYRFFGYDYWGQGTQVTVSS | low polyreactivity |
| QVQLVESGGGLVQAGGSLRLSCAASGFIFNTNAMGWYRQAPGKERELVAGISRSGVRTYYADSVKGRFTISRDNAKNTVFLQMNSLKPEDTAVYYCAATSLPRYYYWGQGTQVTVSS | low polyreactivity |
| QVQLVESGGGLVQAGGSLRLSCAASGFIFPENDMGWYRQAPGKERELVATISGDTSTNYADSVKGRFTISRDNAKHTVYLQMNSLKPEDTAVYYCNRKLKGRKSHKLDYDYWGQGTQVTVSS | low polyreactivity |
| QVQLVESGGGLVQAGGSLRLSCAASGFIFPKNAMGWYRQAPGKERELVAAISKRGGSTYYADSVKGRFTISRDNAKNTVYLQMNSLKPEDTAVYYCADGYRTRRGLGYYYWGQGTQVTVSS | high polyreactivity |
| QVQLVESGGGLVQAGGSLRLSCAASGFIFPLYTMGWYRQAPGKEREVVAAISWIGGRTYYADSVKGRFTISRDFAKNTVYLQMISLKPEDTAVYFCGKDPSGGGYGYDYWGQGTQVTVTS | low polyreactivity |

| Sequence | polyreactivity (PSR sort gate) |
| --- | --- |
| QVQLVESGGGLVQAGGSLRLSCAASGFIFPNYAMGWYRQAPGKVRELVAAISVRGGNTYYADSVKGRFTISRDNAKNTVYLQMNSLKPEDTAVYYCNAVLRSGYFPEYYYWGQVTQVTVSS | high polyreactivity |
| QVQLVESGGGLVQAGGSLRLSCAASGFIFPQYAMGWYRQAPGKERELVAAISWSGTRTYYADSVKGRFTISRDNAKNTVYLQMNSLKPEDTAVYYCAARIDRQYRWTGFGYWGQGTQVTVSS | high polyreactivity |
| QVQLVESGGGLVQAGGSLRLSCAASGFIFPRYAMGWYRQAPGKERELVAAISYSGGSTYYADSVKGRFTISRDNAKNTVYLQMNSLKPEDTAVYYCAARLFKDSWMDYWGQGTQVTVSS | high polyreactivity |
| QVQLVESGGGLVQAGGSLRLSCAASGFIFPRYAMGWYRQAPGQERELVAAISKSGGRTYYADSGKGRFTISRDYAKNTFYLQMNSLNPEDTAVYYCAAGRISRFSRYYYWGQGTQVTVSS | high polyreactivity |
| QVQLVESGGGLVQAGGSLRLSCAASGFIFPRYAMGWYRQAPGTERELVAAISRGGRTNYADSVKGRFTISRDNAKNTVYFQMNSLKPEDTAVYYCAKKYYLSGSRADDSWGQGTQVTVSS | high polyreactivity |
| QVQLVESGGGLVQAGGSLRLSCAASGFIFPTYAMGWYRQATGKERELVAAISYRGGITSYADSVKGRFTISRDNAKNTVYLQMNSLKPEDSAVYYCAARGAWGYEYWGQGTQVTVSS | low polyreactivity |
| QVQLVESGGGLVQAGGSLRLSCAASGFIFPVNAMGWYRQAPGKERELVAGISRGGRTNYADSVKGRFTISRDNAKYSVYLQMNSLKPEDTAVYYCAAESYRAYKYDSWGQGTQVTVSS | low polyreactivity |
| QVQLVESGGGLVQAGGSLRLSCAASGFIFPVYAMGWYRQAPGKERELVAAIRRGGSTNYADSVKGRFTISRDNAKNTVYLQMNSLKPEDTAVYYCAVEYQSPDDYWGQGTQVTVSS | low polyreactivity |
| QVQLVESGGGLVQAGGSLRLSCAASGFIFPWNAMGWYRQAPGKERELVAAISFSGGSTYYADSVKGRFTISRDNAKNTVYLQMNSLKPEDTAVYYCAKRTWDLRRTRHYYWGQGTQVTVSS | low polyreactivity |
| QVQLVESGGGLVQAGGSLRLSCAASGFIFPWYTMGWYRQAPGKERELVAVINQSGGSTYYADSVKGRFTISRDNAKNPVYLQMNSLKPEDTAVDYCAAKSYYSWGQGTQVTVSS | high polyreactivity |
| QVQLVESGGGLVQAGGSLRLSCAASGFIFPYNAMGWYRQAPGKDRELVAAISWSGSNTYYADSVNGRFTISRDNAMNTVYLQMNSLKPEDTAVYYCAARHSVYYFVQRNGRYGYWGQGTQVTVSW | high polyreactivity |
| QVQLVESGGGLVQAGGSLRLSCAASGFIFPYNAMGWYRQAPGKERELVAGITSSGGGTYYADSVKGRFTISRDNAKNTVYLQMNSLKPEDTAVYYCNKVWSYHLYPYDYWGQGTQVTVSS | high polyreactivity |
| QVQLVESGGGLVQAGGSLRLSCAASGFIFPYNAMGWYRQAPGKERELVAVISSSGGDTYYADSVKGRFTISRDNAKNTVYLQMNSLKPEDTAVYYCAADSYYGYEYWGQGTQVTVSS | low polyreactivity |
| QVQLVESGGGLVQAGGSLRLSCAASGFIFPYYAMGWYRPAPGKERELVAAITSSGGSTYYADSVKGRFTISRDNAKNTVYLQMNSLKPEDTAVYYFNAYVRRTRVYDYWGQGTLVTVSS | high polyreactivity |
| QVQLVESGGGLVQAGGSLRLSCAASGFIFPYYAMGWYRQAPGKERELVAAITSSGGSTYYADSVKGRFTISRDTAKNTVYLQMTSLKPEDNAVYYCNAYVRRTRDYDYWGQGTQVTVSS | high polyreactivity |
| QVQLVESGGGLVQAGGSLRLSCAASGFIFQANAMGWYRQAHGKERELVAAIRSGDRTYYADSVKGRFTISRDNAKNTVYLQMNSLKPEDTAVYYCAAFYHHYYRYDYWGQGTQVTVSS | low polyreactivity |
| QVQLVESGGGLVQAGGSLRLSCAASGFIFQAYAMGWYRQAPGKERELVASISYSGSRTYYADSVKGRFTISRDNAKNTVYLQMNSLKPEDTAVYYCAAGPRYWAPWFGRDYEYWGQGTQVTVSS | high polyreactivity |
| QVQLVESGGGLVQAGGSLRLSCAASGFIFQGYVMGWYRQAPGKEREFVAAISRSGGTTFYADSVKGRFTISRDNAKNTVYLQMNSLKPEDTAVYYCNRARLGRPGYDYWGQGTQVTVSS | high polyreactivity |
| QVQLVESGGGLVQAGGSLRLSCAASGFIFQRNAMGWYRQAPGKERELVAAISWTGGSTYYADSVKGRFTISRDNAKNTVYLQMNSLKPDVTAVYYCAKYGSGPYGYWGQGTQVTVSS | high polyreactivity |
| QVQLVESGGGLVQAGGSLRLSCAASGFIFRAYAKRWYRPAPGKERELFAALTKRSGTTYSADSVKRRFTISRDNAKNTVYVQMNSLKPEDTAVYFCAAKTLYNSGTQDRAMGYWGQGTQVTVSS | high polyreactivity |
